“Also recorded” adds a separate entry of the source.
B1: TS-F: recombinant full catalytic domain of TS, amino acid residues 33-666, His-tagged, expressed in E. coli (protein, listed as Trypanosoma cruzi)
chain: ETQIAIKNSRVSSVSRVVDPTVIVKGNKLYVLVGSYYSSRSYWSSHGDARDWDILLAVGEVTKSTAGGKITASIKWGSPVSLKKFFPAEMEGMHTNQFLGGAGVAIVASNGNLVYPVQVTNKRKQVFSKIFYSEDDGKTWKFGKGRSDFGCSEPVALEWEGKLIINTRVDWKRRLVYESSDMEKPWVEAVGTVSRVWGPSPKSNQPGSQTSFTAVTIEGMRVMLFTHPLNFKGRCVRDRLNLWLTDNQRIYNVGQVSIGDENSAYSSVLYKDDKLYCLHEINTDEVYSLVFARLVGELRIIKSVLRSWKNWTATCPAFAPLLIQPLRRQRVVVVPLSPRLVLLAFCRQRLPKRMGGSYRCVNASTANAERVRNGLKFAGVGGGALWPVSQQGQNQRYRFANHAFTLVASVTIHEAPRAASPLLGASLDSSGGKKLLGLSYDEKHQWQPIYGSTPVTPTGSWETGKRYHLVLTMANKIGSVYIDGELLEGSGQTVVPDGRTPDISHFYVGGYKRSDMPTISHVTVNNVLLYNRRQLNTEEIRTLFLSQDLIGTEAHMDSSSDSSAHSTPSTPADSSAHSTPSTPVDSSAHSTPSTPADSSAHGTPSTPVDSSAHGTPSTPADSSAHGTPSTPVDS
modifications: His tag
notes: recombinant full catalytic domain of TS, amino acid residues 33-666, His-tagged, expressed in E. coli
B2: TS: T. cruzi trans-sialidase purified by immuno-affinity chromatography from supernatants of infected Vero cells (SEQ ID NO:2, SEQ ID NO:34) (protein, listed as Trypanosoma cruzi)
chain: MVAIADARYETSSENSLIDTVAKYSVDDGETWETQIAIKNSRVSSVSRVVDPTVIVKGNKLYVLVGSYYSSRSYWSSHGDARDWDILLAVGEVTKSTAGGKITASIKWGSPVSLKKFFPAEMEGMHTNQFLGGAGVAIVASNGNLVYPVQVTNKRKQVFSKIFYSEDDGKTWKFGKGRSDFGCSEPVALEWEGKLIINTRVDWKRRLVYESSDMEKPWVEAVGTVSRVWGPSPKSNQPGSQTSFTAVTIEGMRVMLFTHPLNFKGRCVRDRLNLWLTDNQRIYNVGQVSIGDENSAYSSVLYKDDKLYCLHEINTDEVYSLVFARLVGELRIIKSVLRSWKNWTATCPAFAPLLIQPLRRQRVVVVPLSPRLVLLAFCRQRLPKRMGGSYRCVNASTANAERVRNGLKFAGVGGGALWPVSQQGQNQRYRFANHAFTLVASVTIHEAPRAASPLLGASLDSSGGKKLLGLSYDEKHQWQPIYGSTPVTPTGSWETGKRYHLVLTMANKIGSVYIDGELLEGSGQTVVPDGRTPDISHFYVGGYKRSDMPTISHVTVNNVLLYNRRQLNTEEIRTLFLSQDLIGTEAHMDSSSDSSAHSTPSTPADSSAHSTPSTPVDSSAHSTPSTPADSSAHGTPSTPVDSSAHGTPSTPADSSAHGTPSTPVDSSAHSTPSTPVDSSAHSTPSTPVDSSAHGAPSTPADSSAHGTPSTPVDSSAHGTPSTPADSSAHSTPSTPADSSAHSTPSTPADSSAHSTPSTPVDSSAHGTPSTPADSSAHSTPSTPADSSAHGTPSTPVDSSAHSTPSTPVDSSAHGTPSTPVDSSAHSTPSTPVDSSAHGTPSTPVDSSAHSTPSTPADSSAHSTPSTPADSSAHGTPSTPVDSSAHSTPSTPADSSAHSTPSTPVDSSAHSTPSTPADSSAHGTPSTPVDSSAHGTPSTPADSSAHSTPSTPADSSAHSTPSTPADSSAHSTPSTPVDSSAHSTPSTPADSSAHSTPSTPADSSAHSTPSTPADSSAHSTPSTPVDSSAHSTPSTPADSSAHGTPSTPADSSAHSTPSTPVDSSAHSTPSTPADSSAHGTPSTPADSSAHSTPSTPADSSAHGTPSTPADSSAHSTPSTPAGSSANGTVLILPDGAALSTFSGGGLLLCACALLLHVFFMAVF

Experiments:
[1] = tested on: Akt kinase in human Schwann cells; experiment: Immunodetection of activated Akt (Ser473) in Schwann cells
Description: Schwann cells, grown in 10% FCS to 70% confluency in 6-well plates, were switched to DMEM containing 0.1% FCS for 48 hours to reduce basal Akt phosphorylation. Then the cells were placed in serum-free DMEM medium for 2 hours and challenged with TS, CD or other test factors for predetermined periods of time. When the PI-3 kinase inhibitor LY294002 (Sigma) was used, the inhibitor was added to the serum-starved cells 30 minutes before challenge with TS or CD. Cell samples were lysed with lysis buffer (20 mM Tris, pH7.5, 150 mM NaCl, 1 mM EDTA, 1% Triton X-100 (t-Octylphenoxypolyethoxyethanol), 2.5 mM sodium pyrophosphate, 1 mM glycerophosphate, 1 mM Na3VO4, 1 μg/ml leupeptin and 1 mM Phenymethylsulfonyl fluoride (PMSF)). Samples (40 μg) were run on 10% SDS-Page, blotted to nitrocellulose paper and analyzed by Western (immuno) blot with monoclonal antibody specific for P-Ser473 of Akt (New England Biolabs). Reaction was visualized by chemiluminescence using the ECL kit (New England Nuclear).
Schwann cells were seeded in 10% FCS to 50-70% confluency in 10 cm Petri dishes 24 h prior transfection, performed in serum-free DMEM. Cells were maintained in 10% FCS for 24 hr and then switched to medium containing 700 μg/ml G418 (Gibco BRL) and 2% FCS for 3 days and 0.1% FCS for another 4 days with CD added to some cell monolayers. After this cells were assessed for viability by Trypan blue exclusion and by DAPI staining. At the same time cell lysates were analyzed for Akt phosphoryltion by Western (immuno) blots with monoclonal antibody specific for P-Ser473 of Akt (New England Biolabs). Reaction was visualized by chemiluminescence using the ECL kit (New England Nuclear).

Trans-sialidase assay = type: biochemical
Description: The trans-sialidase assay was performed as described (Scudder et al., J. Biol. Chem. 268:9886-9891 (1993)) with slight modifications. Various amounts of intact enzyme or enzyme fragments were added to 50 mM PBS, Ph 7.2, containing 15% fetal calf serum and […] of [^14C]N-acetyllactosamine (4×10^5 dpm), 50 μg BSA and 0.02% NaN3 in a volume of 60 μl. After incubation for a predetermined amount of time at room temperature, the reaction mixture was diluted to 1.0 ml with distilled water and applied to a column containing 1.0 ml Q-Sepharose equilibrated with water. Sialylated product was eluted with 1 M NaCi and quantified by scintillation counting.
TS enzymatic activity was measured by the sialylation of the acceptor ^14C-labeled N-acetyllactosamine on anion exchange resins (Scudder, P. et. al., J. Biol. Chem. 268:9886-9891 (1993)). Recombinant TSA-1, was expressed on insect sf9 cells and purified from serum-free medium by ion exchange chromatography (monoQ) and preparative SDS-PAGE (Wrightsman, R. A. et al., J. Immunol., 153:3148-3154 (1994).

[2] = tested on: mouse splenocytes, bone marrow cells, and peritoneal cells; experiment: IL-6 secretion by naive mouse cells; type: cell-based; conditions: peritoneal cells from BALB/c and other strains of mice
[3] = tested on: peripheral blood mononuclear cells (PBMC); experiment: IL-6 secretion by PBMC (ELISA); type: cell-based, human; design: IL-6 secretion by PBMC: dose or concentration left out as unconfirmed
Description: Primary cultures of human intestinal microvascular endothelial cells (HIMEC) isolated from normal jejunal mucosa/submucosal tissue were prepared as described (Strong et al., Gastroenterology 114: 1244-1256 (1998)). The HIMEC were cultured in fibronectin-coated plasticware in MCDB medium (Sigma) supplemented with 20% FBS, 90 μg/ml heparin and 50 μg/ml endothelial cell growth factor (Sigma). T-24 cells (ATCC Accession No. HTB-4) were cultured in M199 medium supplemented with 10% FBS. PBMC were purified by Ficoll-Paque gradient as described (Current Protocols in Immunology, pp 7.1.1-7.1.2). Vero cells (ATCC Accession No. CCL-81) were grown in RPMI medium with 5% Nu serum and infected with the Silvio X-10/4 of T. cruzi as described previously (Chuenkova et al., J. Exp. Med. 181: 1693-1703, (1995)).
(§1) Endothelial cells and T-24 cells were plated on 24-well plates at a density of 1×10^3 cells/well, while peripheral blood mononuclear cells (PBMC) were plated in the similar wells at 1×10^6/well. Triplicat cultures of cells were incubated test agents for a predetermined amount of time. […] Cytokines and chemokines released in the culture supernatants were measured by ELISA assay following the instructions of the manufacturer (Endogen). The cytokines tested were IL-1β, IL-4, IL-8, IL-10, IL-12, IFN-γ, TNF-α, and the chemokines RANTES and MCP-1. Negative controls were cells incubated in medium containing polymixin B at 10 μg/ml, and positive controls were cells incubated with bacterial LPS at the low ng/ml range (for PBMC or HIMEC) or in the μg/ml range for carcinoma T-24 cells. In some experiments, IL-1β, or TNFα were used as positive control for cytokine release.
TR peptides (Table 2) were synthesized at the Tufts Synthesis Facility (Boston, Mass.). Each peptide was purified by HPLC, and the number of amino acids and molecular weight of each peptide verified by mass spectrometry. Peptides were dissolved in growth medium (10% FCS in RPMI) and added at various concentrations to 1×10^6 PBMC/well in 24-well plates. After 24 hrs, IL-6 was assayed by ELISA in the conditioned supernatants.

[4] = tested on: human intestinal microvascular endothelial cells (HIMEC); experiment: Other cytokines and chemokines in HIMEC supernatants (ELISA); type: cell-based; conditions: 24 hrs; bacterial LPS 50 ng/ml
Description: as §1

Bcl-2 mRNA in PC12 cells = experiment: RT-PCR of Bcl-2 gene transcripts in PC12 cells; type: cell-based, rat
Description: Total RNA was extracted from PC12 cells by the acid guanidinum isothiocyanate method (Chomchinski, P., et al., Biotechniques 15: 532-535 (1993)) using TRI-reagent (Molecular Research Center, Inc.). cDNA synthesis was performed according to the instruction of the manufacturer (Gibco-BRL). Reverse transcription reactions were carried out for 50 minutes at 42° C. and were heated to 70° C. for 15 minutes to terminate the reaction using a MiniCycler (MJ Research). Samples were cooled to 4° C. and stored at −20° C. until use.
PCR reactions were performed in 50 μl containing 1.5 μl of template DNA (corresponding to cDNA synthesized from 100 ng of total RNA), 1×PCR buffer, 100 μM of deoxynucleotides, 2.5 mM MgCl2, 10 mM DTT, 10 pM of Bcl-2 primers, and 2 U of Taq DNA polymerase (Gibco-BRL). The synthetic DNA primers for the rat Bcl-2 were: 5′-[…]-3′ (SEQ ID NO:8) and 5′-[…]-3′(SEQ ID NO:9) to give a PCR product of 566 bp. The sequences for synthetic GAPDH DNA primers (Wong, H., et al., Anal. Biochem. 223: 251-258 (1994)) were: 5′-[…]-3′ (SEQ ID NO:10) and 5′-[…]-3′ (SEQ ID NO:11) giving a PCR produce of 306 base pairs. Amplifications were carried out in MiniCycler (MJ Research) using following conditions: 98° C. for 5 minutes (initial heat denaturation), 3 cycles of 94° C. for 1 minute, 63° C. for 1 minute, 72° C. for 1.5 minutes; 3 cycles of 94° C. for 1 minutes, 60° C. for 1 minute, 72° C. for 1.5 minutes, followed by 72° C. for 10 minutes. Primers for GAPDH (10 pM) were added at cycle 7 by the “primer-dropping” method. Aliquots of PCR reaction products were separated by electrophoresis in 2% agarose gels (Ultrapure, Gibco-BRL), containing 0.2 μg/ml ethidium bromide. Gels were analyzed by computerized densitometric scanning using Gel doc 1000 (Bio Rad) and Molecular Analyst Software, version 2.1.

Row | Molecule | Akt phosphorylation in Schwann cells transfected with PTEN mutant pG129R ([1]; CD 500 ng/ml) | phospho-Akt in Schwann cells transfected with empty vector (neo) ([1]; CD 500 ng/ml) | time after which phospho-Akt not detected ([1]; CD 500 ng/ml) [min] | time to activation of Schwann cell Akt kinase ([1]; CD 500 ng/ml) [min] | phosphorylation/activation of Akt kinase in human Schwann cells ([1]; CD 500 ng/ml where stated, Western blot P-Akt (Ser473), listed as CD) | phospho-Akt in Schwann cells over expressing PTEN ([1]; CD 500 ng/ml, listed as CD) | trans-sialidase enzymatic activity (Trans-sialidase assay) | IL-6 secretion by naive mouse cells [2] | IL-6 secretion by PBMC ([3]; 24 hrs culture) | stimulation time for maximum IL-6 secretion in PBMC ([3]; TS 1 μg/ml) [h] | concentration of other cytokines (IL-1β, IL-4, IL-8, IL-10, IL-12, INF-γ, TNF-α, RANTES, MCP-1) in HIMEC supernatants [4] | bcl-2 gene expression in PC12 cells (Bcl-2 mRNA in PC12 cells; TS 2.5 ng/ml, CNTF 50 ng/ml, alone or combined, 17 hours) | expression of Bcl-2 mRNA in PC12 cells (Bcl-2 mRNA in PC12 cells; TS 100 and 200 ng/ml, 17 hours serum-free)
1 | B1 | did not detectably enhance | boosted levels of phospho-Akt | 15 | 1 to 5 | induced transient phosphorylation of Akt kinase | did not result in the generation of phospho-Akt; also recorded: did not induce phosphorylation of Akt kinase | enzymatically active |  |  |  |  |  | 
2 | B2 |  |  |  |  |  |  |  | potently and specifically induced IL-6 secretion; also recorded: upregulator of IL-6 secretion | potently and specifically induced IL-6 secretion; also recorded: stimulated IL-6 release | 24 | did not increase | did not induce bcl-2 gene expression individually | dramatically increased Bcl-2 mRNA; also recorded: induces the expression of Bcl-2 mRNA

Reference: patent US8114412B2, “T. cruzi-derived neurotrophic agents and methods of use therefor” (priority 1999, dated 2012)
